Here are results for 1 molecule from patent US20210008161A1, “METHODS AND COMPOSITIONS FOR IMPROVED HOMOLOGY DIRECTED REPAIR” (CRISPR THERAPEUTICS AG, priority 2019, published 2021).

The series deals with CD34-expressing LT-HSPCs. In words: Indel formation at HBB locus by TIDE analysis. The series is classed as cell-based, human. The conditions noted are these: RNP of Cas9 and R02 gRNA only; TIDE; FIG. 11. Here is the method:
Editing efficiency at the HBB locus was evaluated by measuring indel formation by TIDE analysis. […] This group had 1.7-fold reduction in INDEL frequency relative to cells treated with RNP+AAV,

B1: R02 gRNA: sgRNA targeting the HBB locus (SEQ ID NO: 17), used as RNP with Cas9 (nucleic acid)
guide: CNUNUNGCCCCACAGGGCAGUAAGUUUUAGAGCUAGAAAUAGCAAGUUAAAAUAAGGCUAGUCCGUUAUCAACUUGAAAAAGUGGCACCGAGUCGGUGCUNUNUNU
modifications: Synthetic gRNA-related, HBB sgRNA; modified_base (1)..(6) every c and u is a 2′ O-methyl phosphorothioate nucleotide; (2)..(2) n is a phosphorothioate nucleotide; (4)..(4) n is a phosphorothioate nucleotide; (6)..(6) n is a phosphorothioate nucleotide; modified_base (100)..(104) every u is a 2′ O-methyl phosphorothioate nucleotide; (101)..(101) n is a phosphorothioate nucleotide; (103)..(103) n is
B1 showed an indel formation of 94%.
